Laboratory results from publication PMC1557830.

How the values were obtained:
[1] = molecular target: SIV surface glycoprotein gp120 (SIVmneE11S), on virions (SIV (strain SIVmneE11S)) (UniProt P05885); assay: cryo-EM structure; cryo-electron tomography of vitrified intact SIVmneE11S virions; 2,986 spikes extracted, aligned and averaged with 3-fold symmetrisation; 28 Å (0.5 FSC); Env unliganded, in situ on the viral membrane
[2] = molecular target: SIV transmembrane glycoprotein gp41 (SIVmneE11S), naturally truncated intra-viral domain of 17 amino acids, on virions (SIV (strain SIVmneE11S)) (UniProt P05885); assay: as above

SIV surface glycoprotein gp120 (SIVmneE11S), on virions (from UniProt P05885 23-528) (natural protein)
stoichiometry N [1]: 3

SIV transmembrane glycoprotein gp41 (SIVmneE11S), naturally truncated intra-viral domain of 17 amino acids, on virions (from UniProt P05885 529-882) (natural protein)
stoichiometry N [2]: 3
